{"source": "the Human Domainome abundance scans (Beltran et al. 2025)", "parents": {"B1": {"name": "Receptor-interacting serine/threonine-protein kinase 2, residues 438 to 518; numbered along this chain, O43353 (parent)", "chain": "QWIQSKREDIVNQMTEACLNQSLDALLSRDLIMKEDYELVSTKPTRTSKVRQLLDTTDIQGEEFAKVIVQKLKDNKQMGLQ"}}, "note": "± gives the uncertainty stated by the source."}
{"variants_of": "B1", "assay": "abundance fitness (aPCA) (normalised: wild type 0, dead -1); higher = more abundant; growth selection in yeast, the domain comes from the species named", "settings": "Homo sapiens"}
{"variant": "QWIQSKREDIVNQMTEACLNQSLDALLSRDLIMKEDYELVSTKPTRTSKVRQPLDTTDIQGEEFAKVIVQKLKDNKQMGLQ", "abundance fitness": "-0.423 ± 0.064"}
{"variant": "QWIQSKREDIVNQMTEACLNQSLDALLSRDLIMKEDYELVSTKPTRTSKVRQILDTTDIQGEEFAKVIVQKLKDNKQMGLQ", "abundance fitness": "-0.544 ± 0.16"}
{"variant": "QWIQSKREDIVNQMTEACLNQSLDALLSRDLIMKEDYELVSTKPTRTSKVRQCLDTTDIQGEEFAKVIVQKLKDNKQMGLQ", "abundance fitness": "-0.433 ± 0.12"}
{"variant": "QWIQSKREDIVNQMTEACLNQSLDALLSRDLIMKEDYELVSTKPTRTSKVRQVLDTTDIQGEEFAKVIVQKLKDNKQMGLQ", "abundance fitness": "-0.56 ± 0.085"}
{"variant": "QWIQSKREDIVNQMTEACLNQSLDALLSRDLIMKEDYELVSTKPTRTSKVRQQLDTTDIQGEEFAKVIVQKLKDNKQMGLQ", "abundance fitness": "-0.567 ± 0.12"}
{"variant": "QWIQSKREDIVNQMTEACLNQSLDALLSRDLIMKEDYELVSTKPTRTSKVRQRLDTTDIQGEEFAKVIVQKLKDNKQMGLQ", "abundance fitness": "-0.643 ± 0.066"}
{"variant": "QWIQSKREDIVNQMTEACLNQSLDALLSRDLIMKEDYELVSTKPTRTSKERQLLDTTDIQGEEFAKVIVQKLKDNKQMGLQ", "abundance fitness": "-0.538 ± 0.18"}
{"variant": "QWIQSKREDIVNQMTEACLNQSLDALLSRDLIMKEDYELVSTKPTRTSKIRQLLDTTDIQGEEFAKVIVQKLKDNKQMGLQ", "abundance fitness": "-0.524 ± 0.16"}
{"variant": "QWIQSKREDIVNQMTEACLNQSLDALLSRDLIMKEDYELVSTKPTRTSKGRQLLDTTDIQGEEFAKVIVQKLKDNKQMGLQ", "abundance fitness": "-0.679 ± 0.071"}
{"variant": "QWIQSKREDIVNQMTEACLNQSLDALLSRDLIMKEDYELVSTKPTRTSKPRQLLDTTDIQGEEFAKVIVQKLKDNKQMGLQ", "abundance fitness": "-0.53 ± 0.066"}
{"variant": "QWIQSKREDIVNQMTEACLNQSLDALLSRDLIMKEDYELVSTKPTRTSKRRQLLDTTDIQGEEFAKVIVQKLKDNKQMGLQ", "abundance fitness": "-0.802 ± 0.079"}
{"variant": "QWIQSKREDIVNQMTEACLNQSLDALLSRDLIMKEDYELVSTKPTRTSKYRQLLDTTDIQGEEFAKVIVQKLKDNKQMGLQ", "abundance fitness": "-0.761 ± 0.35"}
{"variant": "QWIQSKREDIVNQMTEACLNQSLDALLSRDLIMKEDYELVSTKPTRTSKNRQLLDTTDIQGEEFAKVIVQKLKDNKQMGLQ", "abundance fitness": "-0.737 ± 0.2"}
{"variant": "QWIQSKREDIVNQMTEACLNQSLDALLSRDLIMKEDYELVSTKPTRTSKHRQLLDTTDIQGEEFAKVIVQKLKDNKQMGLQ", "abundance fitness": "-0.696 ± 0.21"}
{"variant": "QWIQSKREDIVNQMTEACLNQSLDALLSRDLIMKEDYELVSTKPTRTSKTRQLLDTTDIQGEEFAKVIVQKLKDNKQMGLQ", "abundance fitness": "-0.505 ± 0.095"}
{"variant": "QWIQSKREDIVNQMTEACLNQSLDALLSRDLIMKEDYELVSTKPTRTSKSRQLLDTTDIQGEEFAKVIVQKLKDNKQMGLQ", "abundance fitness": "-0.389 ± 0.053"}
{"variant": "QWIQSKREDIVNQMTEACLNQSLDALLSRDLIMKEDYELVSTKPTRTSKWRQLLDTTDIQGEEFAKVIVQKLKDNKQMGLQ", "abundance fitness": "-0.903 ± 0.15"}
{"variant": "QWIQSKREDIVNQMTEACLNQSLDALLSRDLIMKEDYELVSTKPTRTSKLRQLLDTTDIQGEEFAKVIVQKLKDNKQMGLQ", "abundance fitness": "-0.817 ± 0.088"}
{"variant": "QWIQSKREDIVNQMTEACLNQSLDALLSRDLIMKEDYELVSTKPTRTSKQRQLLDTTDIQGEEFAKVIVQKLKDNKQMGLQ", "abundance fitness": "-0.612 ± 0.1"}
{"variant": "QWIQSKREDIVNQMTEACLNQSLDALLSRDLIMKEDYELVSTKPTRTSKVRGLLDTTDIQGEEFAKVIVQKLKDNKQMGLQ", "abundance fitness": "-0.556 ± 0.056"}
{"variant": "QWIQSKREDIVNQMTEACLNQSLDALLSRDLIMKEDYELVSTKPTRTSKVRVLLDTTDIQGEEFAKVIVQKLKDNKQMGLQ", "abundance fitness": "-0.603 ± 0.081"}
{"variant": "QWIQSKREDIVNQMTEACLNQSLDALLSRDLIMKEDYELVSTKPTRTSKVRALLDTTDIQGEEFAKVIVQKLKDNKQMGLQ", "abundance fitness": "0.082 ± 0.074"}
{"variant": "QWIQSKREDIVNQMTEACLNQSLDALLSRDLIMKEDYELVSTKPTRTSKVRKLLDTTDIQGEEFAKVIVQKLKDNKQMGLQ", "abundance fitness": "-0.442 ± 0.24"}
{"variant": "QWIQSKREDIVNQMTEACLNQSLDALLSRDLIMKEDYELVSTKPTRTSKVRWLLDTTDIQGEEFAKVIVQKLKDNKQMGLQ", "abundance fitness": "-0.011 ± 0.058"}
{"variant": "QWIQSKREDIVNQMTEACLNQSLDALLSRDLIMKEDYELVSTKPTRTSKVRDLLDTTDIQGEEFAKVIVQKLKDNKQMGLQ", "abundance fitness": "-0.526 ± 0.25"}
{"variant": "QWIQSKREDIVNQMTEACLNQSLDALLSRDLIMKEDYELVSTKPTRTSKVRFLLDTTDIQGEEFAKVIVQKLKDNKQMGLQ", "abundance fitness": "-0.403 ± 0.14"}
{"variant": "QWIQSKREDIVNQMTEACLNQSLDALLSRDLIMKEDYELVSTKPTRTSKVRHLLDTTDIQGEEFAKVIVQKLKDNKQMGLQ", "abundance fitness": "-0.493 ± 0.15"}
{"variant": "QWIQSKREDIVNQMTEACLNQSLDALLSRDLIMKEDYELVSTKPTRTSKVRPLLDTTDIQGEEFAKVIVQKLKDNKQMGLQ", "abundance fitness": "-0.551 ± 0.079"}
{"variant": "QWIQSKREDIVNQMTEACLNQSLDALLSRDLIMKEDYELVSTKPTRTSKVRMLLDTTDIQGEEFAKVIVQKLKDNKQMGLQ", "abundance fitness": "-0.42 ± 0.12"}
{"variant": "QWIQSKREDIVNQMTEACLNQSLDALLSRDLIMKEDYELVSTKPTRTSKVRCLLDTTDIQGEEFAKVIVQKLKDNKQMGLQ", "abundance fitness": "-0.203 ± 0.12"}
{"variant": "QWIQSKREDIVNQMTEACLNQSLDALLSRDLIMKEDYELVSTKPTRTSKVRYLLDTTDIQGEEFAKVIVQKLKDNKQMGLQ", "abundance fitness": "-0.77 ± 0.41"}
{"variant": "QWIQSKREDIVNQMTEACLNQSLDALLSRDLIMKEDYELVSTKPTRTSKVRLLLDTTDIQGEEFAKVIVQKLKDNKQMGLQ", "abundance fitness": "-0.57 ± 0.084"}
{"variant": "QWIQSKREDIVNQMTEACLNQSLDALLSRDLIMKEDYELVSTKPTRTSKVRSLLDTTDIQGEEFAKVIVQKLKDNKQMGLQ", "abundance fitness": "-0.196 ± 0.045"}
{"variant": "QWIQSKREDIVNQMTEACLNQSLDALLSRDLIMKEDYELVSTKPTRTSKVRELLDTTDIQGEEFAKVIVQKLKDNKQMGLQ", "abundance fitness": "-0.512 ± 0.089"}
